Results reported in article PMC11723922.
pKd: −log10 of the molar value. Like-named read-outs stand apart in the source and are kept apart here.

How the values were obtained:
Assay in all cases: SPR; BIAcore X100; biotinylated Avi-tagged TβRI or TβRII captured on neutravidin-coupled CM-5 chip (max 150 RU); full-length TGM injected as twofold dilution series; HBS-EP, 25 mM HEPES, 150 mM NaCl, 0.005% P20, pH 7.4; 100 µL/min; 1:1 kinetic model
[1] = target: Biotinylated Avi-tagged human TβRII extracellular domain (human) (UniProt P37173)
[2] = target: Biotinylated Avi-tagged human TβRI extracellular domain (human) (UniProt P36897)
[3] = target: Biotinylated Avi-tagged human TβRI extracellular domain (human) (UniProt P36897); remark: listed apart in the source

Chain of Biotinylated Avi-tagged human TβRI extracellular domain (human) (P36897 34-126): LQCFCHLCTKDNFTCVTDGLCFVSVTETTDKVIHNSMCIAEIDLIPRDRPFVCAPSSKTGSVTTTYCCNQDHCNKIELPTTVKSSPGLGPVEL
Chain of Biotinylated Avi-tagged human TβRII extracellular domain (human) (P37173 23-166): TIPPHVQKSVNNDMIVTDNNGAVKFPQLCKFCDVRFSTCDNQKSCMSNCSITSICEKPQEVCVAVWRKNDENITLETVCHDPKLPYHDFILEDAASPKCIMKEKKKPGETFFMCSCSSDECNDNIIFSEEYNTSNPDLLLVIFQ

## TGM4 full-length (D1-5), recombinant (natural protein)
[1]
  pKd: 3.94
[2]
  pKd: 8.30
[3]
  pKd: 8.30 to 8.52

## TGM1 full-length (D1-5), recombinant (natural protein)
[2]
  pKd: 7.05
